From patent US20230118517A1, “METHODS OF TREATING MULTIPLE MYELOMA” (Seagen Inc., priority 2020, published 2023)
Read-outs that look alike come from different tables or passages of the source.

Assays:
[1] = Pharmacokinetic analysis of SEA-BCMA serum concentration in patients
[2] = test system: relapsed or refractory multiple myeloma (RRMM); test: Clinical antitumor activity (IMWG response, serum free light chain); assay type: in vivo, human
Description: Response assessment included SPEP/immunofixation, UPEP/immunofixation (in patients with a baseline urine M protein ≥200 mg/24 hour or for assessment of VGPR or better), SFLC, quantitative immunoglobulins, and plasmacytoma evaluation by imaging (at baseline, every 4 cycles, and at additional time points if clinically indicated). These samples were collected for local assessment. In addition, blood were analyzed in the central laboratory using a modified SPEP for patients with IgG myeloma.
The determination of antitumor activity were based on response assessments made according to the 2016 IMWG Criteria (Kumar et al., Lancet Oncol 17(8): e328-46, 2016) and treatment decisions by the investigator were based on these assessments. Clinical response of sCR, CR, VGPR, PR, SD, and PD were determined at each assessment based on local laboratory (and the modified SPEP run by the central laboratory for patients with IgG MM), radiological, and clinical evaluations. Progressive disease was based on IMWG 2016 criteria and/or clinical disease progression per investigator. All IMWG responses were confirmed responses. When applicable, determination of immunophenotypic CR, MRD status, and minimal response were made per the IMWG 2016 criteria.
Kappa and lambda free light chains were quantified in serum of patients as surrogate markers of antitumor activity.
A patient was determined to have an OR if, based on the 2016 IMWG uniform response criteria, they achieve a sCR, CR, VGPR, or a PR. The ORR is defined as the proportion of patients with an OR per investigator. Patients whose disease response could not be evaluated per the 2016 IMWG uniform response criteria were scored as Not Evaluable for calculating the ORR.

[3] = target: T1, membrane BCMA on malignant plasma cells (Homo sapiens, UniProt Q02223); test: Flow cytometric assessment of BCMA expression and engagement on MM cells in bone marrow; assay type: in vivo
T1 construct: from tissue; host or cells: multiple myeloma cells in patients' bone marrow aspirates
T1 sequence (Q02223 1-184): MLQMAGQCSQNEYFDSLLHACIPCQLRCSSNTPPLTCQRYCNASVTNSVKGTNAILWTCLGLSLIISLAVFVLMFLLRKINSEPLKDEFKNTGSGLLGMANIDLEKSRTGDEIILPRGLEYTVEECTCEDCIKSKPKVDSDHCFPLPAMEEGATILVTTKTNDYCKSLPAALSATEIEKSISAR
Description: A Flow Cytometric Assay was designed to identify multiple myeloma cells in patients bone marrow aspirate, and measure levels of BCMA (unbound and total) and APRIL on the MM cell surface.
Bone marrow aspirates were collected from enrolled patients at Baseline and on-treatment (C2D22, confirmation of CR, per standard of care), and tested by flow cytometry with one day of collection in most cases.
MM cells detection was performed using extracellular CD138, CD38, CD45, CD56 and CD28 staining and intracellular kappa and lambda light chains staining. […] Detection of APRIL, most probably bound to BCMA on the MM cell surface, is also performed.
Each sample was split into 3 aliquots: one aliquot stained using only the MM gating antigens but no anti-BCMA or anti-APRIL antibodies (gating control), one aliquot stained with MM Gating antigens and the two labeled anti-BCMA antibodies, and one incubated for 2 hours at 37 C with spiked BCMA (100 ug/mL) before staining with MM gating antigens+APRIL+labeled non-competing anti-BCMA 16.16 antibody. After staining, washing and fixation in 2% paraformaldyde, cells were analyzed on a BD FACScanto cytometer, with up to 2×10^6 leukocytes acquired. Data analysis was performed with FACS Diva (Q2) and FlowJo (Seattle Genetics).

[4] = Antitherapeutic antibody (ATA) assessment in patient serum; assay type: in vivo, human; conditions: all samples tested
Description: A qualified electrochemiluminescence assay were used to assess ATA.

[5] = test system: MM1R myeloma target cells; test: PBMC-mediated MM1R target cell killing, first experiment (48 hrs, 3 μM pomalidomide); assay type: cell-based; conditions: combined with Pomalidomide, benchmarked against elotuzumab and WT-BCMA, N=2
Description: Experiments were performed to test whether SEA-BCMA combines effectively with pomalidomide in vitro by combining PBMC effector cells with MM1R target cells treated with both pomalidomide and SEA-BCMA or antibody controls. The first experiment (FIG. 12A) benchmarks against MM standard of care elotuzumab and nonfucosylated parent BCMA antibody. The second experiment (FIG. 12B) benchmarks against MM standard of care daratumumab. MM1R target cells express 15,000 copies of BCMA, 12,000 copies of CS1 (elotuzumab target), and 36,000 copies of CD38 (daratumumab target).
In the first experiment (FIG. 12A), normal donor PBMCs of the FcγRIII V/F genotype were mixed with CFSE (Invitrogen cat #V12883) labeled MM1R myeloma target cells at an effector-to-target cell ratio of 10:1. The mixture was treated with a dose range of the following antibodies: SEA-BCMA, elotuzumab, WT-BCMA (fucosylated parent Ab), or non-binding hIgG1k antibody control (Sigma cat #15154) with or without 3 μM pomalidomide (APEx Bio, cat #A4211). After 48 hrs, the % live MM1R cells were then determined using the viability dye 7-AAD (BD Biosciences, cat #559925) by flow cytometry.

[6] = combination with dexamethasone, SEA-BCMA Day 1 and 15, dexamethasone Day 1, 8, 15, 22 of 28-day cycle
[7] = intensive dosing: 1600 mg q1wk for 8 doses, then once every two weeks
[8] = among 20 total patients treated

SEA-BCMA: non-fucosylated monoclonal anti-BCMA antibody having heavy chain SEQ ID NO: 13 and light chain SEQ ID NO: 15
time at which PK reaches steady state ([1]; Q2W dosing): steady state at cycle 3
accumulation at steady state ([1]; after Q2W dosing): approximately 70%
response by dose level ([2]; 1600 mg per dose once every 2 weeks vs 100-800 mg): highest overall confirmed response rate
response assessment ([2]; Patient A, 1600 mg every two weeks, 7 prior lines): very good partial response (VGPR)
time to which low level of sFLC was maintained ([2]; Patient A, 1600 mg every two weeks, after the first dose): ≥ 40 days
response ([2]; all dose levels (100-1600 mg), after a minimum of 3 cycles of treatment): stable disease was observed
patients with confirmed very good partial response (VGPR) ([2]; among 3 response evaluable patients, 1600 mg): 1 patient
response [2, 6]: Confirmed responses were also observed
response [2, 7]: Confirmed responses were also observed
decrease of serum free light chain (sFLC) level ([2]; patient (Patient A), one week after first 1600 mg dose): about 90%
response ([2]; patient, 200 mg escalated to 1600 mg, 8 prior lines): maintaining stable disease even 10 months after commencement of treatment
saturation of membrane BCMA ([3]; 1600 mg): complete saturation was observed in at least one patient
unbound membrane BCMA on malignant plasma cells ([3]; bone marrow of patients treated in dose escalation): reduced levels of unbound membrane BCMA
saturation of membrane BCMA ([3]; evaluable patients dosed at 800 mg and 1600 mg): Incomplete saturation of membrane BCMA
safety (1600 mg per dose once every 2 weeks): found to be safe
safety profile (20 patients, 100-1600 mg): well-tolerated with no severe adverse effects
adverse event (Patient A, 1600 mg every two weeks, second cycle): Grade 2 maculopapular rash
dose-limiting toxicity (DLT) (Grade 3 infusion-related reactions) [8]: 1 case
total serious infusion-related reactions [8]: 2
safety [6]: found to be safe
delayed-onset infusion-related reactions (IRRs) (dose escalation cohort): no instances of delayed-onset infusion-related reactions
maximum tolerated dose (MTD) (human, in vivo): completed without exceeding MTD
safety [7]: intensive dosing was safe
safety and tolerability (patient, 200 mg escalated to 1600 mg every two weeks, cycles 1-10): tolerated the therapy well without any adverse effects related to SEA-BCMA
anti-SEA-BCMA antibodies [4]: No anti-SEA-BCMA antibodies were found
MM1R target cell killing [5]: greater MM1R target cell killing
